In patent publication US20100136664A1, “CARBOXIN […] FOR FLAMMULINA VELUTIPES” (MYCOMAGIC BIOTECHNOLOGY CO., LTD., priority 2008, published 2010):

Tested on: Flammulina velutipes
Assay: Test for the function of Cbr sequence: growth of transformed strains on PDA plate medium containing carboxin
Assay type: cell-based
Conditions: ten transformed Flammulina velutipes strains (electroporation, pMush-A-mFvCbr) cultured in PDA plate medium containing 2 mg/ml carboxin for one week
Procedure: The vector for expressing mutant Cbr sequence is pMush-A vector containing GPD promoter (pGPD) and hygromycin resistance (hyg) marker. The mutant Cbr sequence preserved in mFvCbrAMV vector (FIG. 1B) and pMush-A vector were sliced with BamH I and Spe I, respectively. The mutant Cbr sequence (mFvCbr) was ligated to the corresponding sites in pMush-A vector using T4 DNA ligase. The constructed vector is called pMush-A-mFvCbr (FIG. 2B).
The mycelia of Flammulina velutipes were cultured in PDB medium at 25° C. for 1-2 weeks. The resulting mycelia were disrupted by a homogenizator and then treated with lysing enzyme solution containing lysing enzyme (Sigma, St. Louis, Mo., U.S.A.), mannitol and potassium phosphate buffer. The resulting mycelial fragments were dissolved in 100 μl electroporation buffer solution as the competent cells used in the electroporation. The well-prepared competent cells were added to the mutant Cbr DNA solution obtained from Example 2 and then placed on ice for 10 minutes. An electroporation was conducted for the resulting solution using Electro Cell Manipulator ECM 630 Electroporation System (BTX, San Diego, Calif., U.S.A.) to obtain transformed mycelia. […] Ten transformed strains were selected and cultured in PDA plate medium containing 2 mg/ml carboxin for one week. […]

B1: mutant Cbr DNA: Flammulina velutipes succinate dehydrogenase iron-sulfur protein gene with point mutation His238 to Leu (CAC→CTC), SEQ ID NO: 1 (nucleic acid)
DNA: ATGCAGTCCGTCGCCCGTCGTTTCTCTGCCGCCGCCGTGCGCCGTAGCTTTTCTACCACTTCTGTCGCGTTCCAGGCTACACCGCTCGAGAAGCCCGTGCTGAACAAGGAATTCAAGATTTACCGCTGGAATCCTGATGAGCCGGAGAAGAAACCGACGCTACAGAGCTACATAATCGACCTGAACCAGACAGGGCCAATGATTCTGGATGCTCTCATCAAGATTAAAAACGAAATCGACCCTACGCTTACCTTCAGACGAAGTTGTCGCGAGGGCATTTGCGGATCTTGTGCGAGAAAAATCGACGGGCAGAACACGTTGGCCTGTCTCTGCAGGATTGATAGGAATGCTGGGAAGGATTCGAAGATCTATCCCTTACCACACAGTGAGTGTCTCATCTGAGCTCTGCGTATCTGAGTGCTAACTTAGATTCCAGTGTACATCGTCAAGGACCTCGTACCGGATCTCACCTACTTCTACAAGCAGTACAAGTCTATCCAACCATACCTTCAGAACGACAACCCACCTGCGTCAGGTCTGTTCATTATTTTGCACCCTCCCCTTTGCTCGGCTTACCGAATCGCTTCTAGGTGAATTCCTCCAAACGCAAGATGACCGCAAGAAGCTCGACGGACTCTACGAGTGTATCCTTTGCGCGTGTTGTTCGACGTCTTGCCCTTCGTATTGGTGGAACCAAGACGAATACCTTGGACCCGCTACTTTGATGCAAGCATATCGCTGGATCGCCGACTCGAGAGTACGTTCTGCTCGTCGTATCATGTTTTATCTCATACTGATATACTCTTAGGACTCTTATGCCGCAGAACGCAAGGAAAAGCTCCAAAACGAGATGAGCATGTACCGATGCCTCACTATCTTCAACTGCTCGCGGACATGCCCCAAGGGTCTCAACCCCGCTGCCGCCATCGCGAAAATCAAGCTTGAGCTTGCGGCCGAGTAA
modifications: Flammulina velutipes
- growth of transformed strains in PDA plate medium containing carboxin (carboxin resistance): Four strains grew
